Measured values taken from IntAct's records for PubMed 9499404.

B1: Cell division control protein 53 (Saccharomyces cerevisiae), Q12018 (parent)
chain: MSETLPRSDDLEATWNFIEPGINQILGNEKNQASTSKRVYKILSPTMYMEVYTAIYNYCVNKSRSSGHFSTDSRTGQSTILVGSEIYEKLKNYLKNYILNFKQSNSETFLQFYVKRWKRFTIGAIFLNHAFDYMNRYWVQKERSDGKRHIFDVNTLCLMTWKEVMFDPSKDVLINELLDQVTLGREGQIIQRSNISTAIKSLVALGIDPQDLKKLNLNVYIQVFEKPFLKKTQEYYTQYTNDYLEKHSVTEYIFEAHEIIKREEKAMTIYWDDHTKKPLSMALNKVLITDHIEKLENEFVVLLDARDIEKITSLYALIRRDFTLIPRMASVFENYVKKTGENEISSLLAMHKHNIMKNENANPKKLALMTAHSLSPKDYIKKLLEVHDIFSKIFNESFPDDIPLAKALDNACGAFININEFALPAGSPKSATSKTSEMLAKYSDILLKKATKPEVASDMSDEDIITIFKYLTDKDAFETHYRRLFAKRLIHGTSTSAEDEENIIQRLQAANSMEYTGKITKMFQDIRLSKILEDDFAVALKNEPDYSKAKYPDLQPFVLAENMWPFSYQEVEFKLPKELVPSHEKLKESYSQKHNGRILKWLWPLCRGELKADIGKPGRMPFNFTVTLFQMAILLLYNDADVLTLENIQEGTSLTIQHIAAAMVPFIKFKLIQQVPPGLDALVKPETQFKLSRPYKALKTNINFASGVKNDILQSLSGGGHDNHGNKLGNKRLTEDERIEKELNTERQIFLEACIVRIMKAKRNLPHTTLVNECIAQSHQRFNAKVSMVKRAIDSLIQKGYLQRGDDGESYAYLA
partner: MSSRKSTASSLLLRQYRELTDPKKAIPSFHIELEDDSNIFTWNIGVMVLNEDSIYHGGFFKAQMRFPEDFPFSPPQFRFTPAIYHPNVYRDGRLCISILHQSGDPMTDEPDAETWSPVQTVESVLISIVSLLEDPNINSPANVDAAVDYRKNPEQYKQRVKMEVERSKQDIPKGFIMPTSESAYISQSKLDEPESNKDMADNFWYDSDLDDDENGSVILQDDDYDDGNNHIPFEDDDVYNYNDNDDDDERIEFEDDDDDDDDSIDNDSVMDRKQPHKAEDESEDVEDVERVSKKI

Variants of: B1
Conditions: with ubc3_yeast CDC34, P14682

Variant	effect of a mutation on the interaction
R488C	disrupting interaction
